From the Human Domainome abundance scans (Beltran et al. 2025) come the findings set out here.

B1: Arginine-glutamic acid dipeptide repeats protein, residues 502 to 543; numbered along this chain, Q9P2R6 (parent)
chain: LKGYACRHCFTTTSKDWHHGGRENILLCTDCRIHFKKYGELP

± gives the uncertainty stated by the source.

In this data set the parent is B1. Nature of the data set: abundance fitness (aPCA) (normalised: wild type 0, dead -1); higher = more abundant; growth selection in yeast, the domain comes from the species named. As to conditions: Homo sapiens.
As to LKGYACNHCFTTTSKDWHHGGRENILLCTDCRIHFKKYGELP [R7N], the abundance fitness was -0.115 ± 0.059.

Turning to LKGYACRHCFTTTSKDWHHGGRENILLCTDCRIPFKKYGELP [H34P], the abundance fitness was -0.805 ± 0.21.

Take LKGYACRHCFTTTSKDWHHLGRENILLCTDCRIHFKKYGELP [G20L]: the abundance fitness was -0.32 ± 0.056.

For the variant LKGYACRHCFTTTSKDWHHGGRENILLCTDCRIHFKKYGPLP [E40P], the abundance fitness was -0.521 ± 0.089.

Take LKGYACRHCFTTTSKDWHHGGRENILLCTDCRIHFKKYGGLP [E40G]: the abundance fitness is -0.136 ± 0.033.

As for LKGYACRHCFTTTSKDWHHGGRENILLCTDRRIHFKKYGELP [C31R], the abundance fitness is -1.16 ± 0.07.

Regarding LKGYACRHCFTTTSKRWHHGGRENILLCTDCRIHFKKYGELP [D16R], the abundance fitness was -0.451 ± 0.038.

Consider LKGYACRHCFTTTSKFWHHGGRENILLCTDCRIHFKKYGELP [D16F], for which the abundance fitness is -0.48 ± 0.081.

Take LKGYACRHCFTTTSSDWHHGGRENILLCTDCRIHFKKYGELP [K15S]: the abundance fitness was -0.162 ± 0.034.

As for LKGYACRHCFTTTSTDWHHGGRENILLCTDCRIHFKKYGELP [K15T], the abundance fitness is -0.002 ± 0.049.

As for LKGYACRHCFTTTSKDGHHGGRENILLCTDCRIHFKKYGELP [W17G], the abundance fitness was -0.154 ± 0.03.

Turning to LKGYACRHCFTTTSKDWHHGGRENILLCTDCRIHRKKYGELP [F35R], the abundance fitness is -0.236 ± 0.034.

With LKGYACRHCFTTTSKDWHHGGRENILLCTDCRIHFKKYLELP [G39L], the abundance fitness was -0.249 ± 0.048.

As for LKGYACRHCFTTTSKDWHHGGRENILLCTDCRIHFKKYSELP [G39S], the abundance fitness is -0.171 ± 0.041.

Consider LKGYACRHCFTTTSKDWHHGGRENILLCTDCRIHFKKYAELP [G39A], for which the abundance fitness is -0.108 ± 0.033.

Take LKGYACRHCFTTTSKDWHHGGRENILLCTDCRIHFKKYCELP [G39C]: the abundance fitness was -0.142 ± 0.26.

Turning to LKGYACRHRFTTTSKDWHHGGRENILLCTDCRIHFKKYGELP [C9R], the abundance fitness was -0.493 ± 0.037.

For LKGYACRHCFTTTSKDWHHGGRENILLCTDCLIHFKKYGELP [R32L], the abundance fitness is -0.058 ± 0.042.

Turning to LKPYACRHCFTTTSKDWHHGGRENILLCTDCRIHFKKYGELP [G3P], the abundance fitness was -0.189 ± 0.036.

In the case of LKAYACRHCFTTTSKDWHHGGRENILLCTDCRIHFKKYGELP [G3A], the abundance fitness is -0.047 ± 0.039.

In the case of LKGYACRHCFTTTSKDWHHGGRENILLCTDCRIHFFKYGELP [K36F], the abundance fitness was determined as 0.294 ± 0.13.

Regarding LKGYACRHCFTTTSKDWHHGLRENILLCTDCRIHFKKYGELP [G21L], the abundance fitness is -0.274 ± 0.037.

In the case of LKGYACRHCFTTTSKDWHHGKRENILLCTDCRIHFKKYGELP [G21K], the abundance fitness is -0.377 ± 0.058.

Take LKGYQCRHCFTTTSKDWHHGGRENILLCTDCRIHFKKYGELP [A5Q]: the abundance fitness was found to be 0.039 ± 0.04.

For LKGYACRHCFTTTSKDWHHGGRENILLCTDCRIHFKKYGETP [L41T], the abundance fitness was -0.044 ± 0.08.

Regarding LKGYACRHCFTTTSKDWHHGGRENILLCTDCRIHFKKYGECP [L41C], the abundance fitness is -0.223 ± 0.052.

On to LKGYACRHCFTTTSKDWHHGGRENILLCTDCRIHFKKNGELP [Y38N], for which the abundance fitness worked out at 0.083 ± 0.087.

For LKGYACRHCFTTTSKDWHHGGRENILLCTLCRIHFKKYGELP [D30L], the abundance fitness was -0.29 ± 0.051.

Consider LKGPACRHCFTTTSKDWHHGGRENILLCTDCRIHFKKYGELP [Y4P], for which the abundance fitness is -0.257 ± 0.047.

In the case of LKGYACRHCFTTISKDWHHGGRENILLCTDCRIHFKKYGELP [T13I], the abundance fitness is -0.282 ± 0.08.

For the variant LKGYACRHCFTTTSKDWHHGGRENILLCTDCRVHFKKYGELP [I33V], the abundance fitness worked out at 0.068 ± 0.037.

On to LKGYACRHCFTTTSKDWHHGGRENILLCTDCRGHFKKYGELP [I33G], for which the abundance fitness amounted to 0.104 ± 0.036.

LKGYACRHCFTTTSKDWHHGGREVILLCTDCRIHFKKYGELP [N24V]: the abundance fitness is -0.297 ± 0.048.

In the case of LKGYACRHCFTTTSKDWHHGGREIILLCTDCRIHFKKYGELP [N24I], the abundance fitness was -0.299 ± 0.086.

In the case of LKGYACRHCHTTTSKDWHHGGRENILLCTDCRIHFKKYGELP [F10H], the abundance fitness was found to be 0.134 ± 0.094.

For LKGYACRHCPTTTSKDWHHGGRENILLCTDCRIHFKKYGELP [F10P], the abundance fitness was -0.279 ± 0.071.

For LKGYACRHCFTTTSKDWHGGGRENILLCTDCRIHFKKYGELP [H19G], the abundance fitness is -0.073 ± 0.033.

Take LKGYACRHCFTTTSKDWHAGGRENILLCTDCRIHFKKYGELP [H19A]: the abundance fitness was -0.048 ± 0.035.

For the variant MKGYACRHCFTTTSKDWHHGGRENILLCTDCRIHFKKYGELP [L1M], the abundance fitness is 0.076 ± 0.038.

Take LKGYACRHCFTTTSKDWHHGGRENILLWTDCRIHFKKYGELP [C28W]: the abundance fitness was -1 ± 0.12.

As to LKGYACRHCFTTTSKDWFHGGRENILLCTDCRIHFKKYGELP [H18F], the abundance fitness was -0.005 ± 0.046.

With LKGYACRHCFTTTSKDWQHGGRENILLCTDCRIHFKKYGELP [H18Q], the abundance fitness is 0.09 ± 0.064.

With LKGYACRHCFTTTSKDWPHGGRENILLCTDCRIHFKKYGELP [H18P], the abundance fitness is -0.333 ± 0.045.

For LKGYACRHCFTTTSKDWNHGGRENILLCTDCRIHFKKYGELP [H18N], the abundance fitness was -0.132 ± 0.051.

Turning to LKGYACRHCFTTTSKDWHHGGRENILLCTDCRIHFKMYGELP [K37M], the abundance fitness is -0.089 ± 0.065.
